{
  "source": "paper PMC11565396",
  "about": "(Journal of Lipid Research, 2024)",
  "proteins": {"B1": {"name": "6xHis-VP40 (recombinant full-length EBOV VP40, dimer) (natural protein)", "chain": "MRRVILPTAPPEYMEAIYPVRSNSTIARGGNSNTGFLTPESVNGDTPSNPLRPIADDTIDHASHTPGSVSSAFILEAMVNVISGPKVLMKQIPIWLPLGVADQKTYSFDSTTAAIMLASYTITHFGKATNPLVRVNRLGPGIPDHPLRLLRIGNQAFLQEFVLPPVQLPQYFTFDLTALKLITQPLPAATWTDDTPTGSNGALRPGISFHPKLRPILLPNKSGKKGNSADLTSPEKIQAIMTSLQDFKIVPIDPTKNIMGIEVPETLVHKLTGKKVTSKNGQPIIPVLLPKYIGLDPVAPGDLTMVITQDCDTCHSPASLPAVIEK"}},
  "biological_target": "the molecule itself",
  "test": "SEC",
  "data": [
    {"protein": "B1", "values": [
      {"measurement": "binding result", "result": "binds"}
    ]}
  ]
}
